Measured values: patent publication US20250051467A1 (JIANGSU HENGRUI PHARMACEUTICALS, published 2025)

B1: 28H1 (antibody, V domains shown)
VH: EVQLLESGGGLVQPGGSLRLSCAASGFTFSSHAMSWVRQAPGKGLEWVSAIWASGEQYYADSVKGRFTISRDNSKNTLYLQMNSLRAEDTAVYYCAKGWLGNFDYWGQGTLVTVSS
VL: EIVLTQSPGTLSLSPGERATLSCRASQSVSRSYLAWYQQKPGQAPRLLIIGASTRATGIPDRFSGSGSGTDFTLTISRLEPEDFAVYYCQQGQVIPPTFGQGTKVEIK
notes: also called control anti-FAP antibody 28H1
B2: Ab10-A297V3-2 (bispecific antibody, human IgG1, kappa, L234A L235A)
heavy: not shown
light: DIQMTQSPSSVSASVGDRVTITCRASQGISSWLAWYQQKPGKAPKLLIYAASSLQSGVPSRFSGSGSGTDFTLTISSLQPEDFATYYCQQANSFPPAFGQGTKVEIKRTVAAPSVFIFPPSDEQLKSGTASVVCLLNNFYPREAKVQWKVDNALQSGNSQESVTEQDSKDSTYSLSSTLTLSKADYEKHKVYACEVTHQGLSSPVTKSFNRGEC
notes: Ab10 IgG1 (L234A/L235A) with one A297V3 VHH on each heavy chain C-terminus; divalent for CD40; also called Ab0-A297V3-2
B3: Ab10-A297V3-4 (bispecific antibody, human IgG1, kappa, L234A L235A)
heavy: not shown
light: DIQMTQSPSSVSASVGDRVTITCRASQGISSWLAWYQQKPGKAPKLLIYAASSLQSGVPSRFSGSGSGTDFTLTISSLQPEDFATYYCQQANSFPPAFGQGTKVEIKRTVAAPSVFIFPPSDEQLKSGTASVVCLLNNFYPREAKVQWKVDNALQSGNSQESVTEQDSKDSTYSLSSTLTLSKADYEKHKVYACEVTHQGLSSPVTKSFNRGEC
notes: Ab10 IgG1 (L234A/L235A) with two A297V3 VHHs in tandem on each heavy chain C-terminus; tetravalent for CD40; also called Ab0-A297V3-4
B4: Ab9 (antibody, human IgG1, kappa, L234A L235A, V domains shown)
VH: QMQLVQSGAEVKKPGASVTVSCRASGYSFADHFIHWVRQAPGQGFQWMGWINPNRGVTHHAQDFQGRVAMTRDMSTDTVYMELTSLRSDDTAVYYCARDESLTARPYYFYGFDVWGQGTLVTVSS
VL: DIQMTQSPSSVSASVGDRVTITCRASQGISSWLAWYQQKPGKAPKLLIYAASSLQSGVPSRFSGSGSGTDFTLTISSLQPEDFATYYCQQANSFPPAFGQGTKVEIKR
notes: Fully human, IgG1 / kappa; also called anti-FAP antibody Ab9
B5: Ab10 (antibody, human IgG1, kappa, L234A L235A, V domains shown)
VH: QVQLQQSGVEVKKPGASVTVSCRASGYSFADHFIHWVRQAPGQGFQWMGWINPNRGVTHHAQDFQGRVAMTRDMSTDTVYMELTSLRSDDTAVYYCARDASLTARPYYFYGFDVWGQGTLVTVSS
VL: DIQMTQSPSSVSASVGDRVTITCRASQGISSWLAWYQQKPGKAPKLLIYAASSLQSGVPSRFSGSGSGTDFTLTISSLQPEDFATYYCQQANSFPPAFGQGTKVEIKR
notes: Fully human, IgG1 / kappa; also called anti-FAP antibody Ab10; Ab110

Key:
[1] = target: T1, human FAP on CHO cells (human, UniProt Q12884 1-760); experiment: FACS, CHO cells overexpressing human FAP
T1 construct: whole, on cells; also called CHO cell line overexpressing human FAP; CHOK1/FAP
Procedure: (§1) A FACS assay was used to measure the binding properties of anti-FAP antibodies on cells. The assay comprises the following steps: A CHO cell line overexpressing human FAP was constructed and plated (1E5/well). The test antibodies were added at 100 μL/well. The highest concentration was 100 nM. A 5-fold dilution was performed, yielding 8 concentrations in total. The plate was incubated at 4° C. for 1 h. Anti-hIgG Alexa Fluor-647 was added as a secondary antibody in the ratio of 1:500. The plate was incubated at 4° C. for 30 min, and a FACS assay was performed. Antibodies that bind to FAP can mark cells. The relation between the percentage of the marked cells that over-express human FAP among all cells and the antibody concentration is shown in FIG. 1. The relation between the percentage of the marked cells that over-express mouse FAP among all cells and the antibody concentration is shown in FIG. 2.

[2] = target: T2, h-FAP-His (human, UniProt Q12884 26-760); experiment: SPR, antibody captured by anti-human IgG Fc, h-FAP-His analyte
T2 construct: range 26-760; Bought recombinant protein with a His tag; also called human FAP-His protein; FAP recombinant protein with a His tag
Procedure: A CM5 sensor chip was used, and HBS-EP+buffer solution (10 mM HEPES, 150 mM NaCl, 3 mM EDTA, 0.05% surfactant P20) was used as the mobile phase. An anti-human IgG (Fc) antibody was made into a […] solution in a 10 mM sodium acetate buffer solution (pH 5.0) and immobilized by amino coupling. The test antibodies were diluted in HBS-EP+buffer solution and captured by the anti-human IgG (Fc) antibody on chip channels. h-FAP-His was dissolved in HBS-EP+buffer solution to prepare an analyte, and the analyte was serially diluted 2-fold. The diluted antibodies were passed through the experimental and reference channels at a flow rate of […], with 1 min of binding and 15 min of disassociation. 10 mM Glycine pH 1.5 was passed as a regeneration buffer solution for 30 s at a flow rate of […]. Data were analyzed. […] However, the binding affinities of the other anti-FAP antibodies obtained by screening at the same time in the present disclosure, such as Ab2, Ab4 and Ab5 (sequences not shown), for the antigen are lower than that of 28H1.

[3] = target: T3, mouse FAP on CHOK1 cells (mouse, UniProt P97321 1-761); experiment: FACS, percent of marked cells overexpressing mouse FAP, anti-hIgG Alexa Fluor-647 secondary antibody
T3 construct: whole, on cells; also called cell surface mouse FAP
T3 sequence (P97321 whole entry): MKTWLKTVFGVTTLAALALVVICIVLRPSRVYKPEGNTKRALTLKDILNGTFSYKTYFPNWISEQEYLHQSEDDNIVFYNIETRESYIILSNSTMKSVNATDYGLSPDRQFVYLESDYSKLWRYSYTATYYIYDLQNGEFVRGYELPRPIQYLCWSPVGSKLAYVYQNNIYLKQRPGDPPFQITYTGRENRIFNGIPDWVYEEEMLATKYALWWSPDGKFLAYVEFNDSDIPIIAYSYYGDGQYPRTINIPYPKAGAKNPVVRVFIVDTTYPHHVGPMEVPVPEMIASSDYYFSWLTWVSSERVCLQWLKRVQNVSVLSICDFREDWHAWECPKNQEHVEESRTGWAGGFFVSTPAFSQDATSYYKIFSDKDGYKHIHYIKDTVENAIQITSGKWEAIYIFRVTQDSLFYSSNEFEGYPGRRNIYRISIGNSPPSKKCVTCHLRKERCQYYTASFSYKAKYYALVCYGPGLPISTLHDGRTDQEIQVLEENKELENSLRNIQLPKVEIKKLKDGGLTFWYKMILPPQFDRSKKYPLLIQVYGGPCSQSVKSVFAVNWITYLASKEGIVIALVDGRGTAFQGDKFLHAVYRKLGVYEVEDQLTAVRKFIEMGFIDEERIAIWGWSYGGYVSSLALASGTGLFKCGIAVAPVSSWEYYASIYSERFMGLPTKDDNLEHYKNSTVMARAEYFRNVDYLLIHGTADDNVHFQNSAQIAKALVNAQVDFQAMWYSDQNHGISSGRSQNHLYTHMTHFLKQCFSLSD
Procedure: as §1

[4] = target: T1, human FAP on CHO cells; experiment: FACS, CHOK1 cells stably expressing human FAP
Procedure: (§2) In this experiment, the binding of the anti-FAP/CD40 bispecific antibodies to stably transfected strains of CHOK1 cells that highly express human FAP, cynomolgus monkey FAP and mouse FAP was measured by FACS.

[5] = target: T3, mouse FAP on CHOK1 cells; experiment: FACS, CHOK1 cells stably expressing mouse FAP
Procedure: as §2

[6] = target: T4, human CD40 on cells (Raji cells; HEK-Blue CD40L cells; human dendritic cells) (human, UniProt P25942 21-277); experiment: FACS, HEK-Blue CD40L cells expressing human CD40
T4 construct: whole, on cells; One entry for untagged full-length human CD40 on cells; also called Raji cell surface human CD40; human cell surface CD40 antigen
T4 sequence (P25942 21-277): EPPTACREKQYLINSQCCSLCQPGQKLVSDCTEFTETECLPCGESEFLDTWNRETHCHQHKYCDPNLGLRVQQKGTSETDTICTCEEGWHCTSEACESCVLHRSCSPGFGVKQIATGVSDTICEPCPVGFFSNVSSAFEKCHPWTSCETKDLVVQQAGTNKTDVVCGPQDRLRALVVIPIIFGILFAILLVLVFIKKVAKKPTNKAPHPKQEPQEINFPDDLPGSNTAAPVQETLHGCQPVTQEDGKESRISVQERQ
Procedure: (§3) The binding of the bispecific antibodies to cell surface CD40 was measured by FACS, including HEK-Blue™CD40L cells highly expressing human CD40 (Invivogen, Cat #hkb-cd40), and HEK293 cells that were transiently transfected with cynomolgus monkey CD40 plasmids (Sino Biological, cat #CG90970-UT) and thus made to highly express cynomolgus monkey CD40. […] See FIGS. 9A, 9B and 11 and Table 21 for details.

[7] = target: T5, cynomolgus monkey FAP on CHOK1 cells (cynomolgus monkey); experiment: FACS, CHOK1 cells stably expressing cynomolgus monkey FAP
T5 construct: whole, on cells
Procedure: as §2

[8] = target: T4, human CD40 on cells (Raji cells; …); experiment: flow cytometry on immature human dendritic cells (CD40)
[9] = target: T6, cynomolgus monkey CD40 on HEK293 cells (cynomolgus monkey, UniProt G7PG38 21-278); experiment: FACS, HEK293 cells transiently expressing cynomolgus monkey CD40
T6 construct: whole, on cells
Procedure: as §3

[10] = target: T7, human FAP protein (Acro, FAP-H5244) (human, UniProt Q12884 26-760); experiment: SPR (Biacore 8K), antibody captured by anti-human IgG Fc, human FAP analyte
T7 construct: Bought protein
Procedure: (§4) The affinities of the anti-FAP/CD40 bispecific antibodies for their antigens, the human FAP protein (Acro, FAP-H5244) and the human CD40 protein (Acro, CD0-H5228), were measured by SPR (GE Healthcare; Biacore 8K). A CM5 sensor chip was used, and HBS-EP+buffer solution (10 mM HEPES, 150 mM NaCl, 3 mM EDTA, 0.05% surfactant P20) was used as the mobile phase. An anti-human IgG (Fc) antibody was immobilized by amino coupling. The test antibodies were separately diluted in HBS-EP+buffer solution as ligands and captured by the anti-human IgG (Fc) antibody on chip channels. Antigenic proteins of different species were used as analytes.

[11] = target: T8, h-CD40-His (human, UniProt P25942 21-193); experiment: SPR (Biacore 8K), antibody captured by anti-human IgG Fc, human CD40 analyte
T8 construct: range 21-193; Bought His-tagged recombinant protein; also called human CD40 protein (Acro, CD0-H5228); human CD40
T8 sequence (P25942 21-193 limits assumed): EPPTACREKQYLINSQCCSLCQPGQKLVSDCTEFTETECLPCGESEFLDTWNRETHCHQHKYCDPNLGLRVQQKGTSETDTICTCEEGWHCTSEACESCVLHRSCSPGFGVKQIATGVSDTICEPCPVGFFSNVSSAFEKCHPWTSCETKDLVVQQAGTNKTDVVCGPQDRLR
Procedure: as §4

[12] = target: T2, h-FAP-His; experiment: ELISA, human FAP-His coated
Procedure: A FAP recombinant protein with a His tag was directly used for coating. After the antibodies were added, a secondary antibody (an HRP-conjugated anti-human IgG antibody) and the HRP substrate TMB were added to measure the binding activity of the antibodies to the antigen. The assay comprises the following steps: A […] solution of human FAP-His protein was used to coat a 96-well microplate at 100 μL/well, and the plate was incubated overnight at 4° C. After a thorough wash, a blocking solution was added at 200 μL/well, and the plate was incubated at room temperature for 2 h. After a thorough wash, dilutions of test anti-FAP antibodies were added at 100 μL/well. The plate was incubated at room temperature for 1 h. After a thorough wash, a 1:20,000 dilution of an HRP-labeled goat anti-human IgG secondary antibody was added at 100 μL/well. The plate was incubated at room temperature for 1 h. After a thorough wash, TMB was added at 100 μL/well, and the plate was incubated in the dark for 15 min. 0.16 M sulfuric acid was added at 50 μL/well. The OD value at 450 nm was measured on a Thermo MultiSkanFc microplate reader, and the binding EC₅₀ values of the anti-FAP antibodies were calculated.

Row | Binder | EC50 [1] | Kd [2] | Ratio of KD of 28H1 to KD of test antibody [2] | Ratio of Kd of 28H1 to Kd of test antibody [2] | koff [2] | kon [2] | EC50 (read off the curve) [3] | EC50 [4] | Emax (MFI) [4] | EC50 [5] | Emax (MFI) [5] | EC50 [6] | Emax (MFI) [6] | EC50 [7] | Emax (MFI) [7] | EC50 (read off the curve) [8] | EC50 [9] | Kd [10] | koff [10] | kon [10] | further results
1 | B1 | 0.784 ng/mL | 1.31 nM | 1 | 1 | 0.000255 s⁻¹ | 195000 M⁻¹ s⁻¹ | ~1 ng/mL |  |  |  |  |  |  |  |  |  |  |  |  |  | 
2 | B2 |  |  |  |  |  |  |  | 2.51 nM | 65200 MFI | 0.79 nM | 12600 MFI | 1.66 nM | 6250 MFI | 1.09 nM | 28200 MFI | ~4 nM | 1.31 nM | 0.405 nM | 8.22e-05 s⁻¹ | 203000 M⁻¹ s⁻¹ | Emax (MFI) [9]: 4930 MFI; Kd [11]: 141 nM; koff [11]: 0.0294 s⁻¹; kon [11]: 209000 M⁻¹ s⁻¹
3 | B3 |  |  |  |  |  |  |  | 1.57 nM | 53800 MFI | 1.65 nM | 12700 MFI | 0.94 nM | 5080 MFI | 1.35 nM | 32500 MFI | ~1 nM | 0.88 nM | 0.378 nM | 6.96e-05 s⁻¹ | 184000 M⁻¹ s⁻¹ | Emax (MFI) [9]: 5120 MFI; Kd [11]: 262 nM; koff [11]: 0.137 s⁻¹; kon [11]: 524000 M⁻¹ s⁻¹
4 | B4 | 0.368 ng/mL | 0.306 nM | 4.3 | 3.54 | 7.19e-05 s⁻¹ | 235000 M⁻¹ s⁻¹ | ~5 ng/mL |  |  |  |  |  |  |  |  |  |  |  |  |  | EC50 [12]: 101000 ng/mL
5 | B5 | 0.432 ng/mL | 0.245 nM | 5.3 | 3.5 | 7.28e-05 s⁻¹ | 297000 M⁻¹ s⁻¹ | ~2 ng/mL | 1.41 nM | 72000 MFI | 10.4 nM | 26400 MFI |  |  | 7.34 nM | 64600 MFI |  |  | 0.34 nM | 7.39e-05 s⁻¹ | 217000 M⁻¹ s⁻¹ | EC50 [12]: 92000 ng/mL
